The target in this test is DddX (ATP-dependent DMSP lyase) of Psychrobacter sp. D2, recombinant (Psychrobacter sp. D2). In words: SEC; gel filtration of purified DddX against molecular mass standards (semilog plot of mass versus Kav).

As a reminder, the stoichiometry N is a count of units in the complex or per binding partner.

In the case of “DddX (ATP-dependent DMSP lyase) of Psychrobacter sp. D2, recombinant (enzyme)”, the stoichiometry N was determined as 2.

The values above are taken from publication PMC8163506, “A novel ATP dependent dimethylsulfoniopropionate lyase in bacteria that releases dimethyl sulfide and acryloyl-CoA” (eLife, 2021).
